# Biological target: Hck (UniProt P08631)
# Assay: phosphorylation enrichment, bacterial display (enrichment ratio); higher = better substrate or ligand; peptides without Tyr show the background
# 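Note: 11-residue human phosphosite peptides and single-mutation variants displayed on the E. coli surface, counted by deep sequencing, each peptide's frequency after selection divided by its frequency in the unselected input library; frequency after pTyr selection over input frequency; kinase dosed for 20-30% of maximal phosphorylation in three min.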
# Chain of Hck (P08631 whole entry, looked up): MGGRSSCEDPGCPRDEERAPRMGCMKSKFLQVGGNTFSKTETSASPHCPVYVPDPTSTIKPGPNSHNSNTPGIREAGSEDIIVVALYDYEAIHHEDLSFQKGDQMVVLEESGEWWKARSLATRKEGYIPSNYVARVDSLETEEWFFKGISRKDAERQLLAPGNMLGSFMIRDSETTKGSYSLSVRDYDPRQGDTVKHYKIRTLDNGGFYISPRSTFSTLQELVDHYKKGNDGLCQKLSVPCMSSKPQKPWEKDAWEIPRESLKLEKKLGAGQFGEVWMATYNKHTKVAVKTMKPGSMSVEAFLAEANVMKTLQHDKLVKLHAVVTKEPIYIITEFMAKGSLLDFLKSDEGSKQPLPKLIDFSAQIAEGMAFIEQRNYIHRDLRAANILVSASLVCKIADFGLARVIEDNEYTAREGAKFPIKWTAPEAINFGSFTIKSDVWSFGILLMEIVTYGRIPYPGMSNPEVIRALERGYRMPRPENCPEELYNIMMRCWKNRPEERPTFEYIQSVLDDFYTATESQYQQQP
row,Sequence,phosphorylation enrichment
1,KSEKVYTRHGV [FLOT1_Y56],0.346
2,KFLVGYEMLAQ [GALT_Y339_M336L],0.416
3,QWRTKYEMDAI [MYH7_Y1375_T1377M],0.561
4,GGCQEYTGAPY [NAXD_Y85],0.577
5,CITIHYNFMCN [TP53_Y234_T230I_YF],0.489
6,QLQTTYPSSDN [MAX_Y115_N114T],0.474
7,FTGDIYSSSNL [LZTR1_Y141_N143S_YF],5.66
8,QPGDICHQTWA [GBA_Y244_Y244C],0.337
9,VIERSYTSADG [DHCR7_Y382_C380R],0.392
10,KVKGEYDMTVP [AHNAK_Y964],0.443
11,SVQVEYMKTIL [GLYATL2_Y127_D126E],0.469
12,EKLQQYLAPGM [EPHB3_Y600_I601L],0.48
13,DVAKEYGHLLP [HRC_Y99_S96A],0.547
14,KACNPYKPPGP,0.496
15,VFGVSYDEYRY [CFTR_Y512_I507V],0.712
16,NFFEFYVDDPP [GCHFR_Y48_YF],0.499
17,RQGKDYVGAIP [KDR_Y951],0.452

row,Sequence,phosphorylation enrichment
1,STASGYSDVTD [DTX2_Y425],0.449
2,AGQEDCDRLRP [CDC42_Y64_Y64C],0.424
3,AFPGEYIPTVF [RAC1_Y32],0.492
4,VGNPAYRSFSN [IL4R_Y497_A492V],0.329
5,VERRVYAEDPF [PCCA_Y401_C398R_YF],0.412
6,GEIQEYGAPLD [ABCC1_Y1508_S1512L],0.485
7,EFISESCGEII [EZH2_Y641_Y641S],0.476
8,IHADIYRWFNI [MARS1_Y344],2.14
9,LRYDVYGGENE [STOX1_Y610_E608D],1.41
10,LDLSFYPTSSS [EMD_Y182_YF],0.89
11,YGAHNHHPLPV [OAT_Y55_Y55H],0.458
12,SSPVPYLSPET [TJP1_Y931],0.445
13,ADTETYLLEKS [MYH7_Y266_I263T],0.512
14,KFDLMYAKWAF [TUBA3E_Y399],2.16
15,FKELVYETVRV [FSHB_Y76],12.4
16,TSSAIYMNLAS [GATAD2B_Y317],6.95

# Biological target: EPHB1 (UniProt P54762)
# Sequence (P54762 whole entry, looked up): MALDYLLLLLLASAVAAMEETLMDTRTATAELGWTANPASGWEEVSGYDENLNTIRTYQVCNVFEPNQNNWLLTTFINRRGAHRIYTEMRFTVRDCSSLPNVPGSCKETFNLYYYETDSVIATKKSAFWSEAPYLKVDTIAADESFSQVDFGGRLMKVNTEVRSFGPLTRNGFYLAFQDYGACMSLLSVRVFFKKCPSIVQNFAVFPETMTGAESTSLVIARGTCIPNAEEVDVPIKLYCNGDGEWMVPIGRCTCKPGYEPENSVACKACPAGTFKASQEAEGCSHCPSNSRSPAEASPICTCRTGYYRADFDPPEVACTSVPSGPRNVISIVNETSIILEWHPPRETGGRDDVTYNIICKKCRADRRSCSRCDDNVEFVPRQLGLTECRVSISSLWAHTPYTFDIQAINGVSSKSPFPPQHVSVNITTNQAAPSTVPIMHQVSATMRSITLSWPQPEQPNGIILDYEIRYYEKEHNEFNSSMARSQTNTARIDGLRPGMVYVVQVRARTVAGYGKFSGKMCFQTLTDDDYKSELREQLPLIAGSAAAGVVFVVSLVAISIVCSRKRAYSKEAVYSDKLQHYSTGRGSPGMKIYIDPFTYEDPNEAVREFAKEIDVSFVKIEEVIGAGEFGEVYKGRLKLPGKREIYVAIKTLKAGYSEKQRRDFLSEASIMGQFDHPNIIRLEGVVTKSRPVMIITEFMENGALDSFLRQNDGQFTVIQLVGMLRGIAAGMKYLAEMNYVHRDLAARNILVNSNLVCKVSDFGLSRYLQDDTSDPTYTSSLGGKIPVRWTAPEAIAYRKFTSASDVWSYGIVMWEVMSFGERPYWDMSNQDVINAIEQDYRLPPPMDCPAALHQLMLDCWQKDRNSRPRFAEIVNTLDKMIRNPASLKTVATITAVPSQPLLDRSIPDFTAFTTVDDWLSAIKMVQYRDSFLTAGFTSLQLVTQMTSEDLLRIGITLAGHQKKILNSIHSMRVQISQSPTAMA
# Assay: as above
row,Sequence,phosphorylation enrichment
1,KSEKVYTRHGV [FLOT1_Y56],0.354
2,KFLVGYEMLAQ [GALT_Y339_M336L],0.434
3,QWRTKYEMDAI [MYH7_Y1375_T1377M],0.479
4,GGCQEYTGAPY [NAXD_Y85],0.636
5,CITIHYNFMCN [TP53_Y234_T230I_YF],0.59
6,QLQTTYPSSDN [MAX_Y115_N114T],0.445
7,FTGDIYSSSNL [LZTR1_Y141_N143S_YF],0.782
8,QPGDICHQTWA [GBA_Y244_Y244C],0.515
9,VIERSYTSADG [DHCR7_Y382_C380R],0.388
10,KVKGEYDMTVP [AHNAK_Y964],0.491
11,SVQVEYMKTIL [GLYATL2_Y127_D126E],0.41
12,EKLQQYLAPGM [EPHB3_Y600_I601L],0.408
13,DVAKEYGHLLP [HRC_Y99_S96A],0.517
14,KACNPYKPPGP,0.464
15,VFGVSYDEYRY [CFTR_Y512_I507V],0.538
16,NFFEFYVDDPP [GCHFR_Y48_YF],0.704
17,RQGKDYVGAIP [KDR_Y951],0.471

row,Sequence,phosphorylation enrichment
1,STASGYSDVTD [DTX2_Y425],0.448
2,AGQEDCDRLRP [CDC42_Y64_Y64C],0.552
3,AFPGEYIPTVF [RAC1_Y32],0.444
4,VGNPAYRSFSN [IL4R_Y497_A492V],0.368
5,VERRVYAEDPF [PCCA_Y401_C398R_YF],0.385
6,GEIQEYGAPLD [ABCC1_Y1508_S1512L],0.74
7,EFISESCGEII [EZH2_Y641_Y641S],0.544
8,IHADIYRWFNI [MARS1_Y344],0.716
9,LRYDVYGGENE [STOX1_Y610_E608D],1.82
10,LDLSFYPTSSS [EMD_Y182_YF],1.33
11,YGAHNHHPLPV [OAT_Y55_Y55H],0.413
12,SSPVPYLSPET [TJP1_Y931],0.442
13,ADTETYLLEKS [MYH7_Y266_I263T],0.449
14,KFDLMYAKWAF [TUBA3E_Y399],0.783
15,FKELVYETVRV [FSHB_Y76],10.2
16,TSSAIYMNLAS [GATAD2B_Y317],8.76

# Tested on: c-Src
# Assay: as above
row,Sequence,phosphorylation enrichment
1,KSEKVYTRHGV [FLOT1_Y56],0.34
2,KFLVGYEMLAQ [GALT_Y339_M336L],0.378
3,QWRTKYEMDAI [MYH7_Y1375_T1377M],0.344
4,GGCQEYTGAPY [NAXD_Y85],0.52
5,CITIHYNFMCN [TP53_Y234_T230I_YF],0.607
6,QLQTTYPSSDN [MAX_Y115_N114T],0.556
7,FTGDIYSSSNL [LZTR1_Y141_N143S_YF],4.35
8,QPGDICHQTWA [GBA_Y244_Y244C],0.369
9,VIERSYTSADG [DHCR7_Y382_C380R],0.419
10,KVKGEYDMTVP [AHNAK_Y964],0.414
11,SVQVEYMKTIL [GLYATL2_Y127_D126E],0.376
12,EKLQQYLAPGM [EPHB3_Y600_I601L],0.347
13,DVAKEYGHLLP [HRC_Y99_S96A],0.52
14,KACNPYKPPGP,0.699
15,VFGVSYDEYRY [CFTR_Y512_I507V],1.31
16,NFFEFYVDDPP [GCHFR_Y48_YF],0.575
17,RQGKDYVGAIP [KDR_Y951],0.487

row,Sequence,phosphorylation enrichment
1,STASGYSDVTD [DTX2_Y425],0.358
2,AGQEDCDRLRP [CDC42_Y64_Y64C],0.427
3,AFPGEYIPTVF [RAC1_Y32],0.476
4,VGNPAYRSFSN [IL4R_Y497_A492V],0.376
5,VERRVYAEDPF [PCCA_Y401_C398R_YF],0.462
6,GEIQEYGAPLD [ABCC1_Y1508_S1512L],0.485
7,EFISESCGEII [EZH2_Y641_Y641S],0.568
8,IHADIYRWFNI [MARS1_Y344],3.77
9,LRYDVYGGENE [STOX1_Y610_E608D],1.94
10,LDLSFYPTSSS [EMD_Y182_YF],0.404
11,YGAHNHHPLPV [OAT_Y55_Y55H],0.506
12,SSPVPYLSPET [TJP1_Y931],0.422
13,ADTETYLLEKS [MYH7_Y266_I263T],0.551
14,KFDLMYAKWAF [TUBA3E_Y399],1.98
15,FKELVYETVRV [FSHB_Y76],8.98
16,TSSAIYMNLAS [GATAD2B_Y317],6.07

# Tested on: AncSZ
# Assay: as above
row,Sequence,phosphorylation enrichment
1,KSEKVYTRHGV [FLOT1_Y56],0.502
2,KFLVGYEMLAQ [GALT_Y339_M336L],0.701
3,QWRTKYEMDAI [MYH7_Y1375_T1377M],1.12
4,GGCQEYTGAPY [NAXD_Y85],1.35
5,CITIHYNFMCN [TP53_Y234_T230I_YF],0.946
6,QLQTTYPSSDN [MAX_Y115_N114T],0.773
7,FTGDIYSSSNL [LZTR1_Y141_N143S_YF],0.748
8,QPGDICHQTWA [GBA_Y244_Y244C],0.796
9,VIERSYTSADG [DHCR7_Y382_C380R],0.571
10,KVKGEYDMTVP [AHNAK_Y964],0.669
11,SVQVEYMKTIL [GLYATL2_Y127_D126E],0.643
12,EKLQQYLAPGM [EPHB3_Y600_I601L],0.68
13,DVAKEYGHLLP [HRC_Y99_S96A],0.723
14,KACNPYKPPGP,0.629
15,VFGVSYDEYRY [CFTR_Y512_I507V],1.01
16,NFFEFYVDDPP [GCHFR_Y48_YF],1.44
17,RQGKDYVGAIP [KDR_Y951],0.705

row,Sequence,phosphorylation enrichment
1,STASGYSDVTD [DTX2_Y425],0.721
2,AGQEDCDRLRP [CDC42_Y64_Y64C],0.784
3,AFPGEYIPTVF [RAC1_Y32],0.776
4,VGNPAYRSFSN [IL4R_Y497_A492V],0.518
5,VERRVYAEDPF [PCCA_Y401_C398R_YF],0.722
6,GEIQEYGAPLD [ABCC1_Y1508_S1512L],1.15
7,EFISESCGEII [EZH2_Y641_Y641S],1.17
8,IHADIYRWFNI [MARS1_Y344],1.22
9,LRYDVYGGENE [STOX1_Y610_E608D],2.74
10,LDLSFYPTSSS [EMD_Y182_YF],1.42
11,YGAHNHHPLPV [OAT_Y55_Y55H],0.538
12,SSPVPYLSPET [TJP1_Y931],0.789
13,ADTETYLLEKS [MYH7_Y266_I263T],1.12
14,KFDLMYAKWAF [TUBA3E_Y399],1.18
15,FKELVYETVRV [FSHB_Y76],2.11
16,TSSAIYMNLAS [GATAD2B_Y317],0.949

# — the supplement of paper PMC10065799, “High-throughput profiling of sequence recognition by tyrosine kinases and SH2 domains using bacterial peptide display” (eLife, 2023)
